Assays:
[1] = molecular target: Methionine γ-lyase from Yarrowia lipolytica (yMGL) (Yarrowia lipolytica); experiment: crystal structure
[2] = molecular target: Methionine γ-lyase from Yarrowia lipolytica (yMGL) (Yarrowia lipolytica); experiment: SEC + other: dynamic light scattering
[3] = molecular target: yMGL-ΔCTD (yMGL with the C-terminal residues 253-380 deleted) (Yarrowia lipolytica); experiment: SEC + other: dynamic light scattering

stoichiometry N [1] | stoichiometry N [2] | stoichiometry N [3] | Substance
2 | 4 | – | Methionine γ-lyase from Yarrowia lipolytica (yMGL) (enzyme)
– | – | 6 | yMGL-ΔCTD (yMGL with the C-terminal residues 253-380 deleted) (domain or fragment)

Source: article doi:10.1101/2025.07.27.667015
